From patent publication US7354588B1, “Functional derivatives of ICAM-1 with altered ability to bind LFA-1 or HRV” (Dana Farber Cancer Institute, priority 1987, dated 2008)
Residue numbers refer to the chain shown, from its start. *1 amine or outer side, *2 acyl side, *3 side chain or, on linkers, in order; H or OH if unused. Where a SMILES comes first, the peptide text is derived from it. Bridges are numbered along the chain shown (N, C = ends). Roman numbers before positions name the chains, in order. [ ]: non-standard residue; d: D form. Actinocin(9to1) = Cc1c2oc3c(C)ccc(C(=O)[*:1])c3nc-2c(C(=O)[*:2])c(N)c1=O; NMeV = CN[C@H](C(=O)O)C(C)C; Sar = CNCC(=O)O

B1: rIL-1 alpha: recombinant IL-1 alpha (protein, UniProt P01583 113-271, looked up)
Interleukin-1 alpha: SAPFSFLSNVKYNFMRIIKYEFILNDALNQSIIRANDQYLTAAALHNLDEAVKFDMGAYKSSKDDAKITVILRISKTQLYVTAQDEDQPVLLKEMPEIPKTITGSETNLLFFWETHGTKNYFTSVAHPNLFIATKQDYWVCLAGGPPSITDFQILENQA
B2: V136GE/GVK (protein, UniProt P05362 28-532, looked up, variant V136G G137V E138K)
Intercellular adhesion …: QTSVSPSKVILPRGGSVLVTCSTSCDQPKLLGIETPLPKKELLLPGNNRKVYELSNVQEDSQPMCYSNCPDGQSTAKTFLTVYWTPERVELAPLPSWQPVGKNLTLRCQVEGGAPRANLTVVLLRGEKELKREPAGVKPAEVTTTVLVRRDHHGANFSCRTELDLRPQGLELFENTSAPYQLQTFVLPATPPQLVSPRVLEVDTQGTVVCSLDGLFPVSEAQVHLALGDQRLNPTVTYGNDSFSAKASVSVTAEDEGTQRLTCAVILGNQSQETLQTVTIYSFPAPNVILTKPEVSEGTEVTVKCEAHPRAKVTLNGVPAQPLGPRAQLLLKATPEDNGRSFSCSATLEVAGQLIHKNQTRELRVLYGPRLDERDCPGNWTWPENSQQTPMCQAWGNPLPELKCLKDGTFPLPIGESVTVTRDLEGTYLCRARSTQGEVTRKVTVNVLSPRYEIVIITVVAAAVIMGTAGLSTYLYNRQRKIKKYRLQQAQKGTPMKPNTQATPP
B3: H152HGA/EEGS (protein, UniProt P05362 28-532, looked up, variant H152E H153E A155S)
Intercellular adhesion …: B2 Intercellular adhesion … with G136V, V137G, K138E, H152E, H153E, A155S
B4: R149RD/EEG (protein, UniProt P05362 28-532, looked up, variant R149E R150E D151G)
Intercellular adhesion …: B2 Intercellular adhesion … with G136V, V137G, K138E, R149E, R150E, D151G
B5: D229QR/HLE (protein, UniProt P05362 28-532, looked up, variant D229H Q230L R231E)
Intercellular adhesion …: B2 Intercellular adhesion … with G136V, V137G, K138E, D229H, Q230L, R231E
B6: N240DS/KNA (protein, UniProt P05362 28-532, looked up, variant N240K D241N S242A)
Intercellular adhesion …: B2 Intercellular adhesion … with G136V, V137G, K138E, N240K, D241N, S242A
B7: N175TSA/QTLG (protein, UniProt P05362 28-532, looked up, variant N175Q S177L A178G)
Intercellular adhesion …: B2 Intercellular adhesion … with G136V, V137G, K138E, N175Q, S177L, A178G
B8: D203TQ/TAD (protein, UniProt P05362 28-532, looked up, variant D203T T204A Q205D)
Intercellular adhesion …: B2 Intercellular adhesion … with G136V, V137G, K138E, D203T, T204A, Q205D
B9: D213GL/HGV (protein, UniProt P05362 28-532, looked up, variant D213H L215V)
Intercellular adhesion …: B2 Intercellular adhesion … with G136V, V137G, K138E, D213H, L215V
B10: R166PQ/EPA (protein, UniProt P05362 28-532, looked up, variant R166E Q168A)
Intercellular adhesion …: B2 Intercellular adhesion … with G136V, V137G, K138E, R166E, Q168A
B11: E254DE/KEK (protein, UniProt P05362 28-532, looked up, variant E254K D255E E256K)
Intercellular adhesion …: B2 Intercellular adhesion … with G136V, V137G, K138E, E254K, D255E, E256K

Key:
[1] = system: ICAM-1 expression on human saphenous vein endothelial cells (HSVEC); assay: Radioimmune assay of ICAM-1 expression with ^125I RR1/1, HSVEC; assay type: cell-based
Method: (§1) In order to measure ICAM-1 expression, a radioimmune assay was developed. In this assay, purified RR1/1 was iodinated using iodogen to a specific activity of 10 μCi/μg. Endothelial cells were grown in 96 well plates and treated as described for each experiment. The plates were cooled at 4° C. by placing in a cold room for 0.5-1 hr, not immediately on ice. The monolayers were washed 3× with cold complete media and then incubated 30 m at 4° C. with ^125I RR1/1. The monolayers were then washed 3× with complete media. The bound 125, was released using 0.1 N NaOH and counted. The specific activity of the ^125I RR1/1 was adjusted using unlabeled RR1/1 to obtain a linear signal over the range of antigen densities encountered in this study. Non-specific binding was determined in the presence of a thousand fold excess of unlabeled RR1/1 and was subtracted from total binding to yield the specific binding.
(§2) Upregulation of ICAM-1 expression on HVEC and HSVEC-HUVEC or HSVEC were seeded into 96 well plates at 1:3 from a confluent monolayer and allowed to grow to confluence. Cells were then treated with the indicated materials or media for 16 hr and the RIA done as in methods. All points were done in quadruplicate.

[2] = system: ICAM-1 expression on human umbilical vein endothelial cells (HUVEC); assay: Radioimmune assay of ICAM-1 expression with ^125I RR1/1, HUVEC; assay type: cell-based; settings: for ^125I Specifically bound (CPM), HUVEC / fold of control ICAM-1 expression, HUVEC: 16 hr; for ^125I Specifically bound (CPM), HUVEC: rIL-1 beta 100 ng/ml, rIL-1 alpha 50 ng/ml, rTNF alpha 50 ng/ml, LPS 10 μg/ml, rIFN gamma 10 ng/ml, polymyxin B 10 μg/ml, control 603 ± 11; for fold of control ICAM-1 expression, HUVEC: same concentrations as CPM
Method: as §1, §2

[3] = system: ICAM-1 expression on human dermal fibroblasts; assay: ^125I goat anti-mouse IgG binding assay, anti-ICAM-1, dermal fibroblasts; assay type: cell-based; settings: cycloheximide 20 μg/ml, actinomycin D 10 μM
Method: The kinetics of interleukin 1 and gamma interferon effects on ICAM-1 expression on dermal fibroblasts were determined using the ^125I goat anti-mouse IgG binding assay of Dustin, M. L. et al. (J. Immunol. 137:245-254 (1986); which reference is herein incorporated by reference). To perform this binding assay, human dermal fibroblasts were grown in a 96-well microtiter plate to a density of 2−8×10^4 cells/well (0.32 cm^2). The cells were washed twice with RPMI 1640 medium supplemented as described in Example 1. The cells were additionally washed once with Hanks Balanced Salt Solution (HBSS), 10 mM HEPES, 0.05% NaN3 and 10% heat-inactivated fetal bovine serum. Washing with this binding buffer was done at 4° C. To each well was added 50 μl of the above-described binding buffer and 50 μl of the appropriate hybridoma supernatant with X63 and W6/32 as the negative and positive controls, respectively. After incubation for 30 minutes at 4° C., with gentle agitation, the wells were washed twice with binding buffer, and the second antibody ^125I-goat anti-mouse IgG, was added at 50 nCi in 100 μl. The ^125I-goat anti-mouse antibody was prepared by using Iodogen (Pierce) according to the method of Fraker, P. J. et al. (Biochem. Biophys. Res. Commun. 80:849 (1978)). After 30 minutes at 4° C., the wells were washed twice with 200 μl of binding buffer and the cell layer was solubilized by adding 100 μl of 0.1 N NaOH. This and a 100 μl wash were counted in a Beckman 5500 gamma counter. The specific counts per minute bound was calculated as [cpm with monoclonal antibody]-[cpm with X63]. All steps, including induction with specific reagents, were carried out in quadruplicate.

LB-2 mAb = assay: Indirect immunofluorescence flow cytofluorometry: mAb LB-2 binding to COS cells expressing ICAM-1 mutants (SLFI, % CL203); assay type: cell-based; settings: SLFI normalized to CL203 SLFI of the mutant
Summary of the method: (§3)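 Transfected COS cells expressing ICAM-1 point mutants were stained by indirect immunofluorescence and analysed by flow cytometry. Specific linear fluorescence intensity of CL203 is expressed relative to wild-type CL203; RR1/1, R6.5 and LB-2 SLFI are expressed relative to CL203 SLFI of the same mutant.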

CL203 mAb = assay: Indirect immunofluorescence flow cytofluorometry: mAb CL203 binding to COS cells expressing ICAM-1 mutants (SLFI, % WT); assay type: cell-based; settings: SLFI of CL203 for mutant normalized to wild type CL203 SLFI; level of expression
Summary of the method: as §3

RR1/1 mAb = assay: Indirect immunofluorescence flow cytofluorometry: mAb RR1/1 binding to COS cells expressing ICAM-1 mutants (SLFI, % CL203); assay type: cell-based; settings: SLFI normalized to CL203 SLFI of the mutant
Summary of the method: as §3

LFA-1 = target: T1, LFA-1 (Homo sapiens, UniProt P05107+P20701); assay: Adherence of COS cells expressing ICAM-1 or ICAM-1 mutants to plastic-bound purified LFA-1; assay type: cell-based; settings: COS cells expressing ICAM-1 mutant adhering to LFA-1 coated plastic; normalized for percent of cells expressing mutant and for wild type binding; mean
T1 construct: endogenous in cells
T1 sequence (P20701 26-1170): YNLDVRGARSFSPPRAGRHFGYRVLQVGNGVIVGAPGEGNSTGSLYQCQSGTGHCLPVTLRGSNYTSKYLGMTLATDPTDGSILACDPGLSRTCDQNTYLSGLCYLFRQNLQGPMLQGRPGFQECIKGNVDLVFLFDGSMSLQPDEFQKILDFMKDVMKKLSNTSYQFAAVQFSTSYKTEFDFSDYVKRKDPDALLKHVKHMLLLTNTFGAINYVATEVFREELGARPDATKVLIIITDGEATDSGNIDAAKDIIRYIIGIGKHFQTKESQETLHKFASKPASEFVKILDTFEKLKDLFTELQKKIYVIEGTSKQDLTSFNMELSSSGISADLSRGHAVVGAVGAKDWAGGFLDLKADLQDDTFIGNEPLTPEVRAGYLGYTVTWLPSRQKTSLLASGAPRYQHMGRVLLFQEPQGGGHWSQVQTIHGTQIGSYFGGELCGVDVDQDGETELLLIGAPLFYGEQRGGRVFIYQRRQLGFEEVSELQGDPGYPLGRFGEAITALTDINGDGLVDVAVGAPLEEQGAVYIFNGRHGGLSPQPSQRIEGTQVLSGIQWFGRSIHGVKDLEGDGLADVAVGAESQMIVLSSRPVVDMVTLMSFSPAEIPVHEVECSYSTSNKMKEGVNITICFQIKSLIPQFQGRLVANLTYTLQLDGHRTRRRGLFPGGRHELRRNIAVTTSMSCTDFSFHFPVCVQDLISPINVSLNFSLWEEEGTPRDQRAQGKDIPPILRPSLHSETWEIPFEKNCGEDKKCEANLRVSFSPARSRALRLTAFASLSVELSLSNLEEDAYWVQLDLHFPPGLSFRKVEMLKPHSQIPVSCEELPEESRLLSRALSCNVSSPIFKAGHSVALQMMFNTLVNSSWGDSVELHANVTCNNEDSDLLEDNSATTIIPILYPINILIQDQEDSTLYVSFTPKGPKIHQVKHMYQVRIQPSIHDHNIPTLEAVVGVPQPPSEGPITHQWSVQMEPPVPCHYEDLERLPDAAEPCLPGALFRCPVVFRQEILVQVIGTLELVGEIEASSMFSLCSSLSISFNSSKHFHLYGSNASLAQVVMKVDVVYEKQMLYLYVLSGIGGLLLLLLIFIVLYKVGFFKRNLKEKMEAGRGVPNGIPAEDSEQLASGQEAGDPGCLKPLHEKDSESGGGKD
T1 sequence (P05107 23-769): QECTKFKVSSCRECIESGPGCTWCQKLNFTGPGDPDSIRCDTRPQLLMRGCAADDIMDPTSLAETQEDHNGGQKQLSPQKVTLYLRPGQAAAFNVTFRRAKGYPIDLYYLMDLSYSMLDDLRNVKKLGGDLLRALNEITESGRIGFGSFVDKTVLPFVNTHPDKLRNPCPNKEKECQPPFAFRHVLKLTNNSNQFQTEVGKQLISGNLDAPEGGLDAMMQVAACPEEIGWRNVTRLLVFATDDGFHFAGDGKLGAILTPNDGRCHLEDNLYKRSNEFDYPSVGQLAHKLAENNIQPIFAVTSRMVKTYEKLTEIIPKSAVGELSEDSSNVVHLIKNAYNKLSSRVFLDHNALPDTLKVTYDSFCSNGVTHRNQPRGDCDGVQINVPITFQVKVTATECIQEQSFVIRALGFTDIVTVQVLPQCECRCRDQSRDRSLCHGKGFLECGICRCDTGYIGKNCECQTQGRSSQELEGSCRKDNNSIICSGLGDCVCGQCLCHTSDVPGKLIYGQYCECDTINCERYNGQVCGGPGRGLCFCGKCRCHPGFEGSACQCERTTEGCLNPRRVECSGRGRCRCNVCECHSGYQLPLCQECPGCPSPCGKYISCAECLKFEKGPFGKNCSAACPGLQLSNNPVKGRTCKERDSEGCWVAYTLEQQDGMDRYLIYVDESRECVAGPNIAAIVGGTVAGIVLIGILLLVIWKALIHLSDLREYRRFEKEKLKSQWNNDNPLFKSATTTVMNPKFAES

R6.5 mAb = assay: Indirect immunofluorescence flow cytofluorometry: mAb R6.5 binding to COS cells expressing ICAM-1 mutants (SLFI, % CL203); assay type: cell-based; settings: SLFI normalized to CL203 SLFI of the mutant
Summary of the method: as §3

HRV14 = assay: Binding of [^35S]-Met labeled HRV14 to COS cells expressing ICAM-1 mutants; assay type: cell-based, human rhinovirus 14; settings: 35S met-labeled HRV14 binding to COS cells expressing ICAM-1 mutant; normalized for percent of cells expressing mutant and for wild type binding; mean
[4] = IL-1 beta 100 ng/ml, rTNF 50 ng/ml, Interferon-gamma 10,000 U/ml

Molecule | ^125I Specifically bound (CPM), HSVEC ([1]; 16 hr, rIL-1 beta 100 ng/ml, rTNF alpha 50 ng/ml, LPS 10 μg/ml, rIFN gamma 10 ng/ml, control 1132 ± 31) [CPM] | fold of control ICAM-1 expression, HSVEC ([1]; 16 hr, same concentrations as CPM) [x] | increase of ICAM-1 expression on HSVEC [1, 4] [fold] | ^125I Specifically bound (CPM), HUVEC [2] [CPM] | fold of control ICAM-1 expression, HUVEC [2] [x] | increase of ICAM-1 expression on HUVEC [2, 4] [fold] | half-maximal increase of ICAM-1 expression ([2]; endothelial cells (HUVEC and HSVEC)) [ng/mL] | effect on interleukin 1 and gamma interferon induced ICAM-1 expression on fibroblasts [3] | SLFI (% CL203) LB-2 (LB-2 mAb) [% CL203] | Cl203 % WT (SLFI) (CL203 mAb) [% WT] | SLFI (% CL203) RR/1 (RR1/1 mAb) [% CL203] | LFA-1 Binding % (LFA-1) [%] | SLFI (% CL203) R6.5 (R6.5 mAb) [% CL203] | HRV Binding % (HRV14) [%]
rIL-1 beta: recombinant IL-1 beta | 8320 ± 766 | 7.3 | 7.3 | 5680 ± 633 | 9 | 9 | 15 |  |  |  |  |  |  | 
Cc1c2oc3c(C)ccc(C(=O)N[C@@H]4C(=O)N[C@H](C(C)C)C(=O)N5CCC[C@H]5C(=O)N(C)CC(=O)N(C)[C@@H](C(C)C)C(=O)O[C@@H]4C)c3nc-2c(C(=O)N[C@@H]2C(=O)N[C@H](C(C)C)C(=O)N3CCC[C@H]3C(=O)N(C)CC(=O)N(C)[C@@H](C(C)C)C(=O)O[C@@H]2C)c(N)c1=O [actinomycin D] (I: T[dV]P[Sar][NMeV] / II: T[dV]P[Sar][NMeV]; ester I:1-I:C, II:1-II:C; linker I:N-II:N via Actinocin(9to1)) |  |  |  |  |  |  |  | abolish the effects |  |  |  |  |  | 
B1 |  |  |  | 9910 ± 538 | 16 |  |  |  |  |  |  |  |  | 
B2 |  |  |  |  |  |  |  |  | 138 | 171 | 220 | 92 | 172 | 117
B3 |  |  |  |  |  |  |  |  | 112 | 94 | 103 | 85 | 94 | 82
B4 |  |  |  |  |  |  |  |  | 166 | 159 | 166 | 81 | 189 | 139
B5 |  |  |  |  |  |  |  |  | 100 | 210 | 94 | 90 | 92 | 106
B6 |  |  |  |  |  |  |  |  | 132 | 142 | 113 | 147 | 125 | 82
B7 |  |  |  |  |  |  |  |  | 44 | 75 | 19 | 26 | 50 | 40
B8 |  |  |  |  |  |  |  |  | 86 | 125 | 178 | 91 | 116 | 111
B9 |  |  |  |  |  |  |  |  | 107 | 128 | 231 | 90 | 175 | 99
B10 |  |  |  |  |  |  |  |  | 64 | 94 | 100 | 75 | 109 | 25
B11 |  |  |  |  |  |  |  |  | 81 | 180 | 178 | 122 | 129 | 99
